This data set relates to Saccharomyces cerevisiae. The experiment in a line: protein stability index of tFT-peptide fusion (C-terminal peptide) (PSI (0-1 scale)); higher = more stable (slower turnover). As to conditions: temperature: 30 C. The procedure: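 MPS profiling in S. cerevisiae of the yeast C-terminome library: the last 12 aa of each annotated ORF are fused to the C-terminus of a sfGFP-mCherry timer, after a GGGS linker. Cells are FACS-sorted into 8 mCherry/sfGFP bins and deep-sequenced. PSI runs from 0 (unstable) to 1 (stable); wild type and das1Δ backgrounds, two technical replicates each.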

Setting [1] is: genetic background: das1 deletion.

± gives the standard deviation of the averaged measurements.

For the sequence VWLAAALPLAFI [PRM7 C-terminal 12 aa], the protein stability index is, setting by setting: under setting [1], 0.58 ± 0.0063; (genetic background: wild type) 0.56 ± 0.018.
For VWSLYSRTALET [OAR1 C-terminal 12 aa] the same measures were 0.6176 ± 0.004 and 0.608 ± 0.012.
The matching figures for VYSIESRVLGHN [OAC1 C-terminal 12 aa]: 0.679 ± 0.015 and 0.676 ± 0.055.
For WAIESVDENWRF [TOP1 C-terminal 12 aa] the same measures were 0.746 ± 0.032 and 0.773 ± 0.04.
WARRSFSSYDLC [GID11 C-terminal 12 aa]: the protein stability index was 0.7053 ± 0.0036 under setting [1] and 0.694 ± 0.011 (genetic background: wild type).
The matching figures for WDLEQIMSQHGF [PCL1 C-terminal 12 aa]: 0.7397 ± 0.007 and 0.735 ± 0.0046.
The matching figures for WLTTKMSSSEAS [UIP4 C-terminal 12 aa]: 0.708 ± 0.014 and 0.741 ± 0.025.
The matching figures for WNCFLSMRNASK [YOR292C C-terminal 12 aa]: 0.693 ± 0.012 and 0.72 ± 0.028.
For the sequence “WRFLGIVKSPNT [YDR510C-A C-terminal 12 aa]”, the protein stability index by setting is: under setting [1], 0.6815 ± 0.0017; (genetic background: wild type) 0.693 ± 0.013.
With WRQEYPGVDEFF [PRM8 C-terminal 12 aa], the protein stability index is, setting by setting: under setting [1], 0.742 ± 0.0099; (genetic background: wild type) 0.748 ± 0.045.
Regarding YAGIPENKIIGV [ARG56 C-terminal 12 aa], the protein stability index amounted to 0.703 ± 0.048 under setting [1] and 0.702 ± 0.021 (genetic background: wild type).
The matching figures for YCLAGVLCVFCV [YPR064W C-terminal 12 aa]: 0.431 ± 0.013 and 0.433 ± 0.0085.
As for YDKESDDRKCCL [CTR3 C-terminal 12 aa], the protein stability index is, setting by setting: under setting [1], 0.681 ± 0.0083; (genetic background: wild type) 0.675 ± 0.034.
In turn, YGISSSVLKGST [PHO87 C-terminal 12 aa] registered a protein stability index under setting [1] of 0.7153 ± 0.0032 and a protein stability index (genetic background: wild type) of 0.676 ± 0.009.
For YGLNIGRPDFYR [TAF10 C-terminal 12 aa] the same measures were 0.725 ± 0.016 and 0.7099 ± 0.0023.
For YHAVDSTMSPKN [OST4 C-terminal 12 aa] the same measures were 0.693 ± 0.019 and 0.719 ± 0.047.
The matching figures for YHKLVDEVFQHL [MPA43 C-terminal 12 aa]: 0.71092 ± 0.00027 and 0.688 ± 0.016.
As for YIDDIDQTIPKY [UBA4 C-terminal 12 aa], the protein stability index by setting is: under setting [1], 0.7441 ± 0.0062; (genetic background: wild type) 0.686 ± 0.0073.
The matching figures for YILFFLFQLSIM [PEX35 C-terminal 12 aa]: 0.342 ± 0.02 and 0.369 ± 0.015.
For YKDDEDDDIEMT [PDS5 C-terminal 12 aa] the same measures were 0.679 ± 0.011 and 0.685 ± 0.051.
The matching figures for YLGAKTGSLIDF [KAR5 C-terminal 12 aa]: 0.702 ± 0.015 and 0.721 ± 0.026.
For the sequence YLIAVTNLVERE [PPT2 C-terminal 12 aa], the protein stability index is 0.682 ± 0.045 under setting [1] and 0.723 ± 0.086 (genetic background: wild type).
For YLKLRGANFVLK [IES6 C-terminal 12 aa] the same measures were 0.695 ± 0.013 and 0.684 ± 0.011.
The matching figures for “YLKRCCYHPMQN [YIL020C-A C-terminal 12 aa]”: 0.72572 ± 0.00065 and 0.679 ± 0.035.
The matching figures for YLRRFFEVTSLV [EMP24 C-terminal 12 aa]: 0.552 ± 0.011 and 0.338 ± 0.03.
With YLYVFLQQARLE [YBR032W C-terminal 12 aa], the protein stability index by setting is: under setting [1], 0.51 ± 0.029; (genetic background: wild type) 0.473 ± 0.018.
The matching figures for YMIRFIANGYYY [SWR1 C-terminal 12 aa]: 0.613 ± 0.014 and 0.614 ± 0.009.
For YMKHLLECRSLW [PCD1 C-terminal 12 aa] the same measures were 0.733 ± 0.019 and 0.6945 ± 0.00077.
With YNINDLYKSLTR [MAK32 C-terminal 12 aa], the protein stability index turned out to be 0.7059 ± 0.0029 under setting [1] and 0.711 ± 0.023 (genetic background: wild type).
Take YPVGQVDRDVCC [TAD3 C-terminal 12 aa]: the protein stability index by setting is: under setting [1], 0.6955 ± 0.0022; (genetic background: wild type) 0.685 ± 0.037.
For YQGVIYGIDGDQ [POP2 C-terminal 12 aa], the protein stability index was found to be 0.699 ± 0.012 under setting [1] and 0.689 ± 0.041 (genetic background: wild type).
The matching figures for “YSISISLHTPCV [YHR049C-A C-terminal 12 aa]”: 0.66 ± 0.013 and 0.632 ± 0.02.
The matching figures for YTDLASIASGRD [SHS1 C-terminal 12 aa]: 0.691 ± 0.016 and 0.714 ± 0.092.
The matching figures for YTVLEDDANDEK [HAP1 C-terminal 12 aa]: 0.673 ± 0.017 and 0.7 ± 0.027.
Turning to YVFVFIIDFIIR [FUN26 C-terminal 12 aa], the protein stability index under setting [1] was determined as 0.213 ± 0.006 and the protein stability index (genetic background: wild type) was 0.245 ± 0.0059.
